Key:
^GFPHtt^ex1Q23 = biological target: T1, ^GFPHtt^ex1Q23 (Homo sapiens, UniProt P42858, DUP37-38); assay: GFPHttex1Q23 levels in transfected HEK293 cells (western blot); type: cell-based; details: HEK293, 48 hours post-transfection
T1 construct: encoding pEGFP huntingtin exon-1 with 23 (^GFPHtt^ex1Q23) or 74 (^GFPHtt^ex1Q74) glutamines; host or cells: HEK293
Protocol: Transfections were performed with Lipofectamine 2000 (Invitrogen by ThermoFisher Scientific) and adapted from the manufacturer's instructions. Briefly, cells were plated on either 12-well or 6-well plates and transfected at 50-70% confluency. For 12-well transfections, 0.833 μg of DNA per well was mixed with 50 μl of OptiMEM (Gibco by Life Technologies) media and incubated for 5 minutes at room temperature. Lipofectamine 2000 in a 2:1, μl of lipofectamine: μg DNA ratio was mixed with 50 μl of OptiMEM media and incubated for 5 minutes at room temperature. DNA and Lipofectamine were mixed and incubated for 15 minutes at room temperature. Fresh media was added to cells prior to the addition of DNA and lipofectamine. For 6-well transfections, the same protocol is followed except that 1.25 μg of DNA per well and 100 μl of OptiMEM for dilution was used. Media was changed 24 hours post-transfection and cells were harvested 48 hours post-transfection. Prior to harvesting, HEK293 cells were washed three times with ice-cold 1×PBS. Samples were then lysed with either 150 μl of ice-cold NETN (with protease inhibitor) or 1× Laemmli Buffer and sonicated twice for 5-8 seconds.
Following sonication, lysates were subjected to BCA protein assay (ThermoFisher Scientific) and prepared for loading by the addition of 4× laemmli buffer and boiling for four minutes. […]

HEK293 cells = assay: Cell viability assay (CellTiter-Glo); type: cell-based, human; details: HEK293 transfected with RFPSRCP1 alone
Protocol: HEK293 cells were transfected as described with RFP or ^RFPSRCP1. Following transfections, cells were diluted to 500,000 cells/mL with 50,000 cells plated per well in duplicate from each transfection reaction in a 96-well plate. Serial dilutions were then performed down each column of the plate down to 390 cells per well. Cells were cultured for an additional 24 hours, then lysed using the CellTiter-Glo Kit (Promega). Luminescence was quantified between 565-700 nm wavelengths on a Spark microplate reader (Tecan) to determine cell viability.

[1] = tested on: wild-type or mutant α-synuclein; assay: α-synuclein levels in HEK293 cells (western blot); type: cell-based, human; details: HEK293, 48 hours, overexpression of SRCP1
Protocol: HEK 293 cells were transfected with either wild-type or mutant α-synuclein in the presence or absence of SRCP1. Cells were collected 48 hours later and analyzed by SDS-PAGE and western blot.

^GFPHtt^ex1Q74 = ^GFPHtt^ex1Q74 (Homo sapiens, UniProt P42858); assay: GFPHttex1Q74 puncta in iPSC-derived neurons; type: cell-based; parameters: encoding pEGFP huntingtin exon-1 with 23 (^GFPHtt^ex1Q23) or 74 (^GFPHtt^ex1Q74) glutamines; host or cells: human iPSC-derived neurons (mixed cultures with astrocytes); details: co-expression
^GFPHtt^ex1Q74, sequence (P42858 with tags, fused parts or gaps): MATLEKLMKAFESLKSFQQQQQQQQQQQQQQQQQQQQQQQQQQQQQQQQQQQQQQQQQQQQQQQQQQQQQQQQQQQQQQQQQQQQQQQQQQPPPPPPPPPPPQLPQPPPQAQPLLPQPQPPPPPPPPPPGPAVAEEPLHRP
Protocol: iPSC transfections were performed with mixed cultures of astrocytes and neurons adhered to matrigel-coated coverslips, seeded at 2.6×10^4 cells/cm^2. iPSC transfections were performed using Lipofectamine 2000 according to the manufacturer's instructions and recommended DNA concentrations for a 24-well transfection.
Plated iPSC derived cultures of astrocytes and neurons were fixed with 4% paraformaldehyde in PBS for 20 minutes at room temperature, 3-5 days after transfection. Cells were permeabilized and blocked prior to antibody labeling. Nuclei were labeled with Hoechst nuclear dye. Primary antibodies used were rabbit anti-Tuj1 (Covance MRB-435P), chicken anti-Tuj1(Gene Tex, GTX85469) and mouse anti-GFAP (Cell Signaling, 3670). Images were taken using an upright Nikon fluorescent microscope with a 40× objective. The number of neural cells with GFP positive puncta was quantified using NIS Elements object quantification tool (Nikon) and neurite length was measured using NIS Elements length measurement tool (Nikon).

T1 sequence (P42858 with tags, fused parts or gaps DUP37-38): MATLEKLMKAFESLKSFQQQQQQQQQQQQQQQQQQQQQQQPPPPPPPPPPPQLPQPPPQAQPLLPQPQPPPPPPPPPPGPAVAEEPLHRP

B1: SRCP1: Dictyostelium discoideum serine-rich chaperone protein 1 (SEQ ID NO:2), expressed in cells as RFP-tagged construct (protein)
chain: MTILSTFTSFSNPPKLNKSSFSSSTGSSLSMGSNSFAWGGGWGGFGGPKGGSFNVDIAGNLIWGVYGFIRGGVGLVKWRGLQKGCKQP
modifications: RFP tag; Dictyostelium discoideum AX4
levels of GFPHttex1Q23 (^GFPHtt^ex1Q23): did not alter the levels of
toxicity (viability by CellTiter-Glo) (HEK293 cells): did not display any toxicity
α-synuclein levels [1]: results in a reduction of α-synuclein
GFPHttex1Q74 puncta (^GFPHtt^ex1Q74): dramatic decrease in ^GFPHtt^ex1Q74 puncta

— US20200207835A1, “SRCP1-BASED THERAPY FOR DISEASES ASSOCIATED WITH PROTEIN AGGREGATION” (THE MEDICAL COLLEGE OF WISCONSIN, INC., priority 2017, published 2020)
